Laboratory results from article PMC9769499.

Target: T1, CzcR (Pseudomonas aeruginosa PAO1) (UniProt Q9RLJ1)
T1 sequence: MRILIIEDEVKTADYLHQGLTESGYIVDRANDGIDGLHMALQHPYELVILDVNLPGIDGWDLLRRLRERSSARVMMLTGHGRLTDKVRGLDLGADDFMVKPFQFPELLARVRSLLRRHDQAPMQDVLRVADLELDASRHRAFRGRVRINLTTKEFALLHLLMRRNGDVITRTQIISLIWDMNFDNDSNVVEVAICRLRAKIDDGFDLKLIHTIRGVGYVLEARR
Experiment: EMSA
Conditions: Thermo Scientific EMSA kit per manufacturer's instructions; buffer, salt, pH and temperature not stated

Row | Sequence | binding
1 | CATCTGCTTCATACCTTGTGTTGTCGTCTTCCCGGAACGCCCCTTCCAGCGCTCTCCGGTATTGGCGGGAACGATGCGCCATCGCTCCCGGCCCGGCGGAAGCCACCTTCGCTTCCGTCACCCGCGCCACGCGCGGTTCTTCCCACGTCCTCA (double strand) [PfleN] | binds
2 | CTGACTCATGACTCTTCCTCCAACAGCCGCGGCTTTTTTGACGCCGCCCGGCACTTTGCAGAGGAGTTAGCAACAAGGGTGCCAAGTCGGCCCCAAGGCCCGGCATCGGCGTTCGCCGCCAATGCCCGCGACCGCTGCAGGGTCCGTCCCTGCTCCGGTTATCGGCAGGCGCGCACGCTCGAACAG (double strand) [PfliE] | no binding
3 | GACGTACAGCATCTTGTCCATCGAATCCTCCAGGCACCGGCACAATCCGCCGGGCTTTCTTGCAGGTTATCCAGCAAGCGCCGTGCCAGAATTCGAAAAAACAATTAATACATTGATTTAAAAGGATTTTATAAAACAGAAAGCCTCCTTTCGGAGGCTTCGGGGGCAA (double strand) [PflgF] | binds
4 | GCAACCGTTCGGAACATTCTTCCCGTCGGGGGTAGGCGAGCGACTTGCCCTGTGGAATAATACTGTCTACTTATACAGTTGTTCGTGGCCGTCCGGCCGCCCTGACTTCGCGAGGACTTCAATGGA (double strand) [recA fragment (PrecA)] | no binding
5 | GCGCACATTGCTGATCAGTTGCGTGCGATCCACTCTCGACTCCCCTGCCCTGCGTATGGCGCCCGTGGGTGGGCGCCGAACAAACTTTTGACGCCGGAATGCGCGTCGGGCGGGTCATTGCAGGAACCGTTCCAACTTTTCAATTCATTGATTGAAAAGGGTTTTCGCCAA (double strand) [PflhA] | no binding
6 | GGTGATTTCCTCCAAAGGACCTATTTCGGTTACCTGAGCTTGCGATCTCTCGGCCTGCTTGCTCAGGTGCCCCAAGAATTCGCGTTCATGGTGTTTATCGGCGTTTCCCGGCGGAGCTTTAGAGAAAAAATCAACATTTTCTTTTTCTCTTCCTCTTCAGTGGGTTACATGCTTCGAAGAGGACTCGCCAATATCGGTCCTGAA (double strand) [PfliC] | no binding
7 | GTTCCAGGGGCTTGCCACCCTTGCCGGCAAGCGGAAGCGGCTTGCCGCTTGCCGCTTCCGGGTTACCCTTAAATAAACTCAAGTTATTGAATATAAAGGTTTTTAATAATTTGGCACGGGCCTTGCTGAAGTGTTGGCGACGAAAGCCACACCGGCAAACAGGTTCGCAGCCATGAGCATCAGTTTCGA (double strand) [PflgB] | binds
8 | TACACAGTGTCCTGTTCGAAACCCGCGCCTGACGCGCGGGTTGAACGACTTGGCATGGTGCTTGCCCTATCGAAGGGATAGGGCAGTACATGCACGGTTTTTTGACGGAGATGGATTATGGCCGGTATCTCGATAGGAGTA (double strand) [PfliD] | no binding
9 | TCATGGGTGTCGGGCTCGGTGTCGGCGAGGCGGCGAACTGGCTTTTCGAGTATTCGGACTATAGTCTTGCGGCTAGCAACCGATAACAAGAGGGAGCCTAGCAGTCCCCCTCCTTATCCTGTTCATTTCGCACGTCCGGTCCTCATGTCAAAAATCATCGGC (double strand) [PmotA] | no binding
10 | TTTCTTAGCCATGCCAAAAATCCGTCGCTATAGCGTCAAATGAAGGGTTTCACAGGGGCAGAGCAAGGGTTGTGCCATTTCTGCAACGCCGCCCCGCCTCCTGGGACCAGCCCCGGAGGGCTGTCCGAGATGATAGACGGCGCGGATATTACAGCCTGGCCACAGGAAATCATCCCCGTCTTTTGCGAAATTGCC (double strand) [PPA1442] | binds
